Measurements published in PMC8041205, “TcpC inhibits toll-like receptor signaling pathway by serving as an E3 ubiquitin ligase that promotes degradation of myeloid differentiation factor 88” (PLoS Pathogens, 2021).

How the values were obtained:
[1] = target: T1, recombinant TcpC (Toll/interleukin-1 receptor domain-containing protein encoded by E. coli) (uropathogenic E. coli (UPEC), UniProt A0A0H2V8B5 1-307); experiment: ITC; 1 uM rTcpC in PBS in the titration pool, 0.1 uM UBE2D1 or rMyD88 in PBS in the sample pool; VP-ITC microcalorimeter; details: both partners purified
T1 construct: TcpC, TIR domain-containing virulence factor of uropathogenic E. coli; called 'the full length rTcpC protein'; predicted TIR domain 171-304 aa; Only the vector pET42a is named; Depending on the cloning sites it may also add an N-terminal GST and S-tag; CFT073 is surmised; also called rTcpC; rTcpC prototype; source: E. coli BL21DE3 transformed with pET42a-tcpc, purified, LPS-free

[2] = target: T1, recombinant TcpC (Toll/interleukin-1 …); experiment: SPR; 1 nM UBE2D1 cross-linked on an activated CM5 chip; 0.05-0.8 nM rTcpC in PBS flowed over; Biacore T200; details: both partners purified

B1: UBE2D1 (R&D) (enzyme)
chain: not shown
notes: UBE2D1 bought from R&D; No catalogue number is printed, so the species and construct of the bought protein are unknown; source: bought: R&D
[1]
  Kd: 763 nM
[2]
  Kd: 17.2 nM
